For the test, the target named is RGD peptide. Kind of test: Single molecule conductance of integrin binding RGD peptide on electrodes. The note with it: one ligand binding site.
Chain of RGD peptide (P06756 31-889 limits assumed): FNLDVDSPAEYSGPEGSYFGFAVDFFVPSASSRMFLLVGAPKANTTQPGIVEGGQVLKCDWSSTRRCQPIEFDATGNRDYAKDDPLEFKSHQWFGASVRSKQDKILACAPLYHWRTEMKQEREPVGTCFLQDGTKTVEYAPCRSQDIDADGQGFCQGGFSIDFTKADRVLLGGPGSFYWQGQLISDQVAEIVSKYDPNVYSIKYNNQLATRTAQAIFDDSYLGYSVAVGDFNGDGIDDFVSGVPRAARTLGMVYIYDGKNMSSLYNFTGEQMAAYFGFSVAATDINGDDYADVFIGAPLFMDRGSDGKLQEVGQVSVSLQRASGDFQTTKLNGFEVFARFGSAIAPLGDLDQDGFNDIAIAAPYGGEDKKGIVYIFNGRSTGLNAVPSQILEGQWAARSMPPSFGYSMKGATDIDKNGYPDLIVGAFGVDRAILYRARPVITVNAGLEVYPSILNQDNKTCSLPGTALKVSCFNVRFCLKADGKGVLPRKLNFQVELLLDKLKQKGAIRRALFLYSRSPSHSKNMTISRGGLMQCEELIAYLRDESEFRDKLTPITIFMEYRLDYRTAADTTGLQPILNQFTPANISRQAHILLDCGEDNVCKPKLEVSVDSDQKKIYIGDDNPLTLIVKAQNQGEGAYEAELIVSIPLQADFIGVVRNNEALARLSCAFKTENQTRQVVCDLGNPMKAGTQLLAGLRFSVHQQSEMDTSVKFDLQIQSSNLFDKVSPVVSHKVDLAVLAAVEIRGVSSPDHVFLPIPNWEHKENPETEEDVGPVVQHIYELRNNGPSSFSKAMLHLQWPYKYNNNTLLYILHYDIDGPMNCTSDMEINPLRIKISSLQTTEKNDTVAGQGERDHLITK
Chain of RGD peptide (P06756 891-1048 partner limits assumed): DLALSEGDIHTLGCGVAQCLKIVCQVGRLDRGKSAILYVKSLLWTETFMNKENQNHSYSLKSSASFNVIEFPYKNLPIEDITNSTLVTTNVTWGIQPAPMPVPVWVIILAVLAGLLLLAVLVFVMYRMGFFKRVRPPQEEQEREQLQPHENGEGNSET
Chain of RGD peptide (P05106 27-788, further chain): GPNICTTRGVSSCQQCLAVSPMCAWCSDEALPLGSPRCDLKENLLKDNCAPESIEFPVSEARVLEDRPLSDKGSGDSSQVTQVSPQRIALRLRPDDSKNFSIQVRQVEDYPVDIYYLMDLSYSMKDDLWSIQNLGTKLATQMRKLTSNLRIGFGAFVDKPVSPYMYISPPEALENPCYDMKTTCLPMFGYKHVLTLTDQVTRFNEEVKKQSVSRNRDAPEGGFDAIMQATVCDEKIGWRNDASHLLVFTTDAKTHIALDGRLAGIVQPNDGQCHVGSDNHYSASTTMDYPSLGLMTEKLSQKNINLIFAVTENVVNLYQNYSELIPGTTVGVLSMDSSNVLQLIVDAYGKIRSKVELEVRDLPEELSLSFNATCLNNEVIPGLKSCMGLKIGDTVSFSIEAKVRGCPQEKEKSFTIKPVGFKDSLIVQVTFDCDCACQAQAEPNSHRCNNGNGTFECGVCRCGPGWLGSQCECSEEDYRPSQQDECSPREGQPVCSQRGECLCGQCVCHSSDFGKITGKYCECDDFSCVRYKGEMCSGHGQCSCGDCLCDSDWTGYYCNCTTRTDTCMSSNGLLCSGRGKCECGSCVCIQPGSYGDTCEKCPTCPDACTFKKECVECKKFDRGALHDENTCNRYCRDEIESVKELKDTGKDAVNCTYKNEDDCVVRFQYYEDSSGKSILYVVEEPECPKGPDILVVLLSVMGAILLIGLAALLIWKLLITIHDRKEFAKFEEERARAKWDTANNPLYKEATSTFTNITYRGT

With “Integrin: αvβ3 integrin binding RGD peptide; only one ligand binding site”, the “conductance G, single peak of distribution” value worked out at 0.3 nS.
